Among the data in paper PMC4820614 are stoichiometry N values, retold here.

The test deals with T1, full-length rat TRPV2 (rat), Q9WUD2.
T1 chain: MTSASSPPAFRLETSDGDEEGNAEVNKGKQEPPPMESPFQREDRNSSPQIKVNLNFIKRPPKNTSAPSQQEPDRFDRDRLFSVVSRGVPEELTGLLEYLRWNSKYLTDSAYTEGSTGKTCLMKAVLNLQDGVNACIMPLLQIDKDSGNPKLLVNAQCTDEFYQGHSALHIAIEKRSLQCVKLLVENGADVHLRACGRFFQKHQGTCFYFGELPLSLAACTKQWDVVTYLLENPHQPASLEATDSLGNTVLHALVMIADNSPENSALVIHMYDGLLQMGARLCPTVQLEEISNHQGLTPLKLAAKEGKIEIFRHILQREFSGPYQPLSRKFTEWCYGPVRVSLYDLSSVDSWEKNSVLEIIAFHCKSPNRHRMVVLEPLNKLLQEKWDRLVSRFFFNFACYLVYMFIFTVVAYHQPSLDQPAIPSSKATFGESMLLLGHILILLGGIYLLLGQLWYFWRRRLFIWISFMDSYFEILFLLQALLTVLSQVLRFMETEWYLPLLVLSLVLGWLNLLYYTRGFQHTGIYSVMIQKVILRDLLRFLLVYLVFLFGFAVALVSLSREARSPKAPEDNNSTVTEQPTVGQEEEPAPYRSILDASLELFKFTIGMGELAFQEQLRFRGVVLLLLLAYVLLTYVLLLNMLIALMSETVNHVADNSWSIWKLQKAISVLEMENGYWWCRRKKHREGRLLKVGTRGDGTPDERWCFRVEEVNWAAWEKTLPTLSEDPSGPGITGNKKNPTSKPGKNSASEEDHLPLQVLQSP
Nature of the test: cryo-EM structure; single particle cryo-EM of purified rat TRPV2 without ligand, 2.5 mg/ml, in decyl MNG, 150 mM NaCl, 20 mM HEPES pH 8.0, 1.0 mM DTT; no added lipids. The following applies: remark: other sources report otherwise.

B1: full-length rat TRPV2, Q9WUD2 1-761 (natural protein)
chain: T1 chain
The stoichiometry N is the number of molecules, sites or subunits per partner or assembly. Turning to B1, the stoichiometry N came to 4.
